For one molecule, Kd results are on record in PMC11134355 (JACS Au, 2024).

Common to all, as to assay: fluorescence polarisation
Common to all, as to details: both partners purified
Background: In fluorescence polarisation assays a small probe gives low polarisation when free and higher when bound to something large.

Assay [1] deals with TgPDCD5 C-terminal peptide (FITC-KNTPKVTM) (T. gondii (GT1 strain), FITC label, printed before the first residue (FITC-KNTPKVTM)).
The target in assay [2] is TgPDCD5 middle-position peptide (FITC-VLTPAAQE) (T. gondii (GT1 strain), FITC label, printed before the first residue (FITC-VLTPAAQE)).
For assay [3], the target named is TgPDCD5 N-terminal peptide (FITC-MQPEEFA) (T. gondii (GT1 strain), FITC label, printed before the first residue (FITC-MQPEEFA)).

As usually defined, the Kd is the free concentration of one partner at which half of the binding sites on the other are occupied at equilibrium, for simple one-to-one binding. Read a low Kd as tighter binding.

B1: TgCyp18 (enzyme)
chain: not shown
In the case of B1, the figures for the dissociation constant Kd in assay [1], in assay [2] and in assay [3] were 0.311 mM, 1.2 mM and 1.41 mM, respectively.
